Source: US7763418B2, “Detection of Rho proteins” (Cytoskeleton, Inc., priority 2005, dated 2010)

Assays:
[1] = tested on: RhoA; test: RhoA G-LISA of calpeptin treated HeLa cell lysates; assay type: cell-based; details: calpeptin 30 minutes
Protocol: Active Rho protein (typically 7-15 μg total cell lysate or 1-5 ng of constitutively active recombinant protein) were either added directly to the effector bound G-LISA plate (Rac1 and Cdc42 G-LISAs) or diluted with an equal volume of Binding Buffer (20% PEG 8000, Sigma, St. Louis, Mo.) prior to adding to effector bound plates (RhoA G-LISA). The reactions were incubated for 30 minutes at 4° C. on a microtiter titer plate shaker after which wells were washed once with 200 μl of PBST (PBS pH 7.2, 0.05% Tween-20) and immediately treated with 200 μl of Antigen Presenting Buffer (1% trichloroacetic acid (TCA)) for 2-5 minutes at room temperature. Wells were then washed three times with 200 μl each of PBST and primary antibody is added typically at 1 μg/ml (RhoA specific), 0.25 μg/ml (Rac1 specific), 1 μg/ml (Cdc42 specific) and incubated at room temperature for 45 minutes (incubation at 4° C. gave similar results). […] After three washes each of 200 μl PBST the activated Rho proteins are detected using absorbance or luminescence detection as described below. […]
Referring to FIG. 10, 25 μl of serum starved or Calpeptin treated (RhoA activated) Hela cell lysate at concentration of 4, 2, 1, 0.5, 0.25, 0.12, 0.06 mg/ml were mixed with same volume of Binding Buffer and subjected to RhoA G-LISA assay followed by absorbance detection. […] All readings had buffer only background subtracted. […]

[2] = tested on: RhoA; test: GST-Rhotekin-RBD pull-down assay of calpeptin treated HeLa cell lysates; assay type: cell-based; details: calpeptin 30 minutes, 500 μg lysate
[3] = target: T1, Rac1 (61L) (Homo sapiens, UniProt P63000, Q61L); test: G-LISA on effector-GBD plates with constitutively active Rac1; assay type: binding; details: 5 ng constitutively active Rac1; detection with the plate's GTPase specific antibody
T1 construct: His; purchased Cytoskeleton Inc. R6101
Protocol: (§1) Effector-GBD peptide (ROCK1, POSH or WASP, see Table 2) was diluted in coating buffer (PBS pH 7.2, plus 1 mM EDTA) to a final concentration 0.05 mg/ml and 5 μg of peptide was added to the wells of maleimide plates (Corning Inc., Catalog #2510). Plates were incubated at 21° C. for 2 hours, washed twice in PBS pH 7.2. Plates were blocked for 1 hour at room temperature with milk (typically 0.1-5%, depending upon effector-GBD). After two washes with PBS (pH 7.2), Lyophilization Buffer was added to each well (5% sucrose and 1% dextran) and the plates were lyophilized and stored desiccated at 4° C. […]
(§2) Active Rho protein (typically 7-15 μg total cell lysate or 1-5 ng of constitutively active recombinant protein) were either added directly to the effector bound G-LISA plate (Rac1 and Cdc42 G-LISAs) or diluted with an equal volume of Binding Buffer (20% PEG 8000, Sigma, St. Louis, Mo.) prior to adding to effector bound plates (RhoA G-LISA). […] After three washes each of 200 μl PBST the activated Rho proteins are detected using absorbance or luminescence detection as described below.
Referring to FIG. 2B, lysis buffer only (Blank), 5 ng of Rac1 (61L), or RhoA (63L) were subjected to a Rac1 G-LISA assay as detailed in materials and methods (Example 2), and Rac1 signal was detected by absorbance at 490 nm as described in materials and methods (Example 2). […]

[4] = target: Rac1 (Homo sapiens, UniProt P63000); details: read-out: published affinity Rac1:PAK; cited from earlier work
[5] = target: T2, RhoA (63L) (Homo sapiens, UniProt P61586, Q63L); test: G-LISA on effector-GBD plates with constitutively active RhoA; assay type: binding; details: 5 ng constitutively active RhoA; detection with the plate's GTPase specific antibody
T2 construct: purchased Cytoskeleton Inc. R6301
T2 sequence (P61586 whole entry Q63L): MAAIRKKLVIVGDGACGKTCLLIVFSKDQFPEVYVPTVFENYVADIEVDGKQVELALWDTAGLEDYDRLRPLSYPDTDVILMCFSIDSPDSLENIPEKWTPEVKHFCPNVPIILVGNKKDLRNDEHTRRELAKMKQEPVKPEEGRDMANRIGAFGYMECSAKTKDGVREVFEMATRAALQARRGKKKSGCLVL
Protocol: as §1, §2
Referring to FIG. 2A, lysis buffer only (Blank), 5 ng of RhoA (63L), Cdc42 (61L) or Rac1 (61L) were subjected to a RhoA G-LISA assay as detailed in materials and methods, and RhoA signal was detected by luminometry as described in materials and methods. […]

[6] = target: T3, Cdc42 (61L) (Homo sapiens, UniProt P60953, Q61L); test: G-LISA on effector-GBD plates with constitutively active Cdc42; assay type: binding; details: 5 ng constitutively active Cdc42; detection with the plate's GTPase specific antibody
T3 construct: His; purchased Cytoskeleton Inc. C6101
T3 sequence (P60953 whole entry Q61L): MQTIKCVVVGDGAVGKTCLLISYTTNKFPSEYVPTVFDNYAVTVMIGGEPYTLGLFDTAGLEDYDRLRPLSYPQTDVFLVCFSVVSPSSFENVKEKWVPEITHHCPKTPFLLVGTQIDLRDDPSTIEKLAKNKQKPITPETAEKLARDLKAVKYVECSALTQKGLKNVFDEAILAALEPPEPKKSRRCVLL
Protocol: as §1, §2
Referring to FIG. 2C, lysis buffer only (Blank), 5 ng of Cdc42 (61L) or Rac1 (61L) were subjected to a Cdc42 G-LISA assay as detailed in materials and methods (Example 2), and Cdc42 signal was detected by absorbance at 490 nm as described in materials and methods (Example 2).

With CCCC[C@@H](C=O)NC(=O)[C@H](CC(C)C)NC(=O)OCc1ccccc1 [calpeptin] the “RhoA fold activation versus serum starved, G-LISA” value ([1]; lysate 0.25 mg/ml to 2 mg/ml (6.25-50 μg)) was “approximately 2 fold”, the “RhoA fold activation versus serum starved, G-LISA” value ([1]; lysate 4 mg/ml (100 μg)) was 1.7 fold and the “RhoA fold activation above serum starved lysate, pull-down densitometry” value [2] was “approximately 2 fold”.

B1: WASP: Histidine-tagged GBD of human WASP (amino acids 201-321), carboxy terminal cysteine, linked to maleimide plate (protein)
chain: DIQNPDITSSRYRGLPAPGPSPADKKRSGKKKISKADIGAPSGFKHVSHVGWDPQNGFDVNNLDPDLRSLFSRAGISEAQLTDAETSKLIYDFIEDQGGLEAVRQEMRRQEPLPPPPPPSRC
modifications: left off: small tags and cut ends
notes: Histidine-tagged GBD of human WASP (amino acids 201-321), carboxy terminal cysteine, linked to maleimide plate
In the case of B1, the “G-LISA signal above background (buffer only)” value (“G-LISA signal above background” below) [3] is reported as “did not give a signal above background”.

B2: PAK-GST: GST-tagged GTPase Binding Domain of human PAK1 (amino acids 68-151), Rac1/Cdc42 effector (protein)
chain: KEKERPEISLPSDFEHTIHVGFDAVTGEFTGMPEQWARLLQTSNITKSEQKKNPQAVLDVLEFYNSKKTSNSQKYMSFTDKSAEC
modifications: left off: a dimerising Fc or GST
For B2, the Kd [4] is listed as about 20 nM.

B3: rhotekin-Cys: synthetic rhotekin-GBD, three internal cysteines replaced, cysteine at carboxy terminal (protein)
chain: ILEDLNMLYIRQMALSLEDTELQRKLDHEIRMRDGAEKLLAALSQREQALEATKSLLVSNSRILSYMGELQRRKEAQVLEKTGRRCS
In the case of B3, the “G-LISA signal above background” value [5] is reported as 6 fold.

B4: POSH: Histidine-tagged GBD of human POSH (amino acids 291-363) linked to maleimide plate (protein, UniProt Q7Z6J0 1-888, looked up)
E3 ubiquitin-protein ligase …: MDESALLDLLECPVCLERLDASAKVLPCQHTFCKRCLLGIVGSRNELRCPECRTLVGSGVEELPSNILLVRLLDGIKQRPWKPGPGGGSGTNCTNALRSQSSTVANCSSKDLQSSQGGQQPRVQSWSPPVRGIPQLPCAKALYNYEGKEPGDLKFSKGDIIILRRQVDENWYHGEVNGIHGFFPTNFVQIIKPLPQPPPQCKALYDFEVKDKEADKDCLPFAKDDVLTVIRRVDENWAEGMLADKIGIFPISYVEFNSAAKQLIEWDKPPVPGVDAGECSSAAAQSSTAPKHSDTKKNTKKRHSFTSLTMANKSSQASQNRHSMEISPPVLISSSNPTAAARISELSGLSCSAPSQVHISTTGLIVTPPPSSPVTTGPSFTFPSDVPYQAALGTLNPPLPPPPLLAATVLASTPPGATAAAAAAGMGPRPMAGSTDQIAHLRPQTRPSVYVAIYPYTPRKEDELELRKGEMFLVFERCQDGWFKGTSMHTSKIGVFPGNYVAPVTRAVTNASQAKVPMSTAGQTSRGVTMVSPSTAGGPAQKLQGNGVAGSPSVVPAAVVSAAHIQTSPQAKVLLHMTGQMTVNQARNAVRTVAAHNQERPTAAVTPIQVQNAAGLSPASVGLSHHSLASPQPAPLMPGSATHTAAISISRASAPLACAAAAPLTSPSITSASLEAEPSGRIVTVLPGLPTSPDSASSACGNSSATKPDKDSKKEKKGLLKLLSGASTKRKPRVSPPASPTLEVELGSAELPLQGAVGPELPPGGGHGRAGSCPVDGDGPVTTAVAGAALAQDAFHRKASSLDSAVPIAPPPRQACSSLGPVLNESRPVVCERHRVVVSYPPQSEAELELKEGDIVFVHKKREDGWFKGTLQRNGKTGLFPGSFVENI
For B4, the “G-LISA signal above background” value [5] was “barely above background”.

B5: ROCK1-GBD: Histidine-tagged GBD of human ROCK1 (amino acids 847-1024), carboxy terminal cysteine, linked to maleimide plate (protein)
chain: EAEQYFSTLYKTQVKELKEEIEEKNRENLKKIQELQNEKETLATQLDLAETKAESEQLARGLLEEQYFELTQESKKAASRNRQEITDKDHTVSRLEEANSMLTKDIEILRRENEELTEKMKKAEEEYKLEKEEEISNLKAAFEKNINTERTLKTQAVNKLAEIMNRKDFKIDRKKANTC
modifications: left off: small tags and cut ends
For B5, the “G-LISA signal above background” value [6] was “did not give a signal above background” and the “G-LISA signal above background” value [3] was “did not give a signal above background”.
